The data set concerns the molecule itself. Kind of data set: AUC.

B1: phosphorylated intracellular domain of PknB_(1-330) (kinase domain and juxtamembrane linker) (domain or fragment)
chain: MTTPSHLSDRYELGEILGFGGMSEVHLARDLRLHRDVAVKVLRADLARDPSFYLRFRREAQNAAALNHPAIVAVYDTGEAETPAGPLPYIVMEYVDGVTLRDIVHTEGPMTPKRAIEVIADACQALNFSHQNGIIHRDVKPANIMISATNAVKVMDFGIARAIADSGNSVTQTAAVIGTAQYLSPEQARGDSVDARSDVYSLGCVLYEVLTGEPPFTGDSPVSVAYQHVREDPIPPSARHEGLSADLDAVVLKALAKNPENRYQTAAEMRADLVRVHNGEPPEAPKVLTDAERTSLLSSAAGNLSGPRTDPLPRQDLDDTDRDRSIGSVG
B1: the Kd – broadly, the concentration at which binding is half-saturated – is approximately 2900 µM.

The values are drawn from article PMC3181147 (Structure (London, England : 1993), 2010).
